Assay results as given in PMC11820115.

Target: GFP1-10 tagged with MCP, with nuclear localization sequences
Experiment: P3 editing (protein-protein proximity joins crRNA-MS2 and BoxB-petracrRNA; prime editing read by amplicon sequencing); HEK293T cells; 12 designs of crRNA-MS2/BoxB-petracrRNA that vary the upper 4 bp of the Cas9-binding region of the repeat:anti-repeat duplex; tagged split-GFP against standard untagged GFP as background; normalized to the eCTT control

GFP11 tagged with LambdaN, with nuclear localization sequences (peptide)
normalized editing efficiency (GAUA:UAUC design): 3.8%
